Patent publication US20230034768A1 (BIOSION, published 2023)
Positions count from the first letter of the chain named. Like-named read-outs stand apart in the source and are kept apart here. Each block holds one binder with its values, some of them ahead of it.

Experiments:
[1] = biological target: T1, Recombinant human RANKL-his protein (R&D, Cat #6449-TEC-010) (human, UniProt O14788 140-317, limits assumed); assay: cell-based or functional assay
T1 sequence (looked up): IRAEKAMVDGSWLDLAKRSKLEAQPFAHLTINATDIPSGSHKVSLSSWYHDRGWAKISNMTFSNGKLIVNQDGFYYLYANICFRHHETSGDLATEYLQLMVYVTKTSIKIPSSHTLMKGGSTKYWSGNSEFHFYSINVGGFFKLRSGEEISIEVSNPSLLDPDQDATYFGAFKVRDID

[2] = biological target: T1, Recombinant human RANKL-his protein …; assay: cell-based or functional assay; remark: listed apart in the source
[3] = biological target: T2, human RANKL-his protein (prepared in-house with SEQ ID NO: 43) (human, UniProt O14788 136-317); assay: Octet BLI, antibody captured, human RANKL-his in solution (same value as Table 2)
T2 construct: also called recombinant human RANKL-his
T2 chain: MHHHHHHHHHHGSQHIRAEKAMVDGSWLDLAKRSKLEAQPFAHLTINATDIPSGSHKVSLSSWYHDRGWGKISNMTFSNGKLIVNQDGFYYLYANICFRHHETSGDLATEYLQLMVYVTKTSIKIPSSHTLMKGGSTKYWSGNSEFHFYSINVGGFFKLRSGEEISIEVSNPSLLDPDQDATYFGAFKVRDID
Experimental: (§1) Briefly, AHC/AMC biosensors (anti-human/anti-mouse IgG Fc capture, ForteBio) were presoaked with 10 mM glycine (pH 1.5) for 3 seconds, and then dipped in a well with running buffer (0.5% w/v BSA in PBST) for 3 seconds, the soaking and dipping steps were repeated for three times. […] A new baseline was run for 180 seconds in another well with HBS-EP⁺. […] Finally, sensors were presoaked with 10 mM glycine (pH 1.5) for 3 seconds, and then dipped in a well with running buffer for 3 seconds, the soaking and dipping steps repeated for three times. The association and dissociation curves were fit to a 1:1 Langmuir binding model using Octet evaluation software.

[4] = biological target: T3, biotin-labeled human RANKL-Fc protein (prepared in house, SEQ ID NO.: 40) (human, biotin-labeled (sites not given)); assay: capture ELISA: captured antibody, biotin-labeled human RANKL-Fc, OD(450-630)
T3 construct: also called RANKL-Fc-biotin
Experimental: (§2) Plates were washed once with wash buffer (PBS+0.05% v/v Tween-20, PBST) and then blocked with 200 μl/well blocking buffer (5% w/v non-fatty milk in PBST) for 2 hours at 37° C. […] After a final wash, plates were incubated with 100 μl/well ELISA substrate TMB (Innoreagents, Cat #TMB-S-002) at room temperature. The reaction was stopped in 3-10 minutes with 50 μl/well 1M H₂SO₄, and the absorbance of each well was read on a microplate reader using dual wavelengths mode with 450 nm for TMB and 630 nm as the reference wavelength. The OD (450-630) values were plotted against antibody concentration. Data were analyzed using Graphpad Prism software and EC₅₀ values were reported.
For the capture ELISA, 96-well micro plates were coated with 2 μg/ml goat anti-human IgG (AffiniPure Goat Anti-Human IgG, F(ab′)₂ fragment specific, Jackson Immunoresearch, Cat #109-005-097) instead of AffiniPure Goat Anti-Mouse IgG, Fcγ fragment specific, 100 μl/well.

[5] = biological target: T3, biotin-labeled human RANKL-Fc protein …; assay: as above; remark: listed apart in the source
Experimental: as §2

[6] = biological target: T3, biotin-labeled human RANKL-Fc protein …; assay: as above; remark: listed apart in the source
Experimental: as §2
(§3) Cell supernatants were harvested after six days in shaking flasks, spun down to pellet cells, and then chimeric antibodies were purified from cell supernatants as described above. The purified antibodies were tested in the capture ELISA, competitive ELISA assay and Octet affinity test following the protocols in the foregoing Examples.

[7] = biological target: T2, human RANKL-his protein (prepared …); assay: Octet BLI, antibody captured on AHC/AMC sensor, human RANKL-his in solution, 1:1 fit
Experimental: as §1

[8] = biological target: T3, biotin-labeled human RANKL-Fc protein …; assay: competitive ELISA: antibody blocks biotin-labeled human RANKL-Fc binding to coated human RANK-Fc
Experimental: (§4) Briefly, human RANK-Fc proteins (prepared in house, SEQ ID NO.: 41) were coated on 96-well micro plates at 2.0 μg/mL in PBS, 100 μl/well, and incubated overnight at 4° C. The next day, plates were washed with wash buffer (PBS+0.05% w/v Tween-20, PBST), and blocked with 5% w/v non-fatty milk in PBST, 200 μl/well, for 2 hours at 37° C.
(§5) Plates were washed 4 times using wash buffer, and added and incubated with 100 μl/well of streptavidin conjugated HRP (1:10000 dilution in PBST buffer, Jackson ImmunoResearch Laboratories, Inc., Cat #016-030-084) for 40 minutes at 37° C. Plates were washed again using wash buffer. Finally, TMB was added and the reaction was stopped using 1M H₂SO₄, and the absorbance of each well was read on a microplate reader using dual wavelengths mode with 450 nm for TMB and 630 nm as the reference wavelength. The OD (450-630) values were plotted against antibody concentration. Data were analyzed using Graphpad Prism software and IC₅₀ values were reported.

[9] = biological target: T3, biotin-labeled human RANKL-Fc protein …; assay: as above; remark: listed apart in the source
Experimental: as §4, §5

[10] = biological target: T3, biotin-labeled human RANKL-Fc protein …; assay: competitive ELISA: antibody blocks biotin-labeled human RANKL-Fc binding to coated benchmark denosumab
Experimental: The next day, plates were washed with wash buffer, and blocked with 5% w/v non-fatty milk in PBST, 200 μl/well, for 2 hours at 37° C. […] After incubation at 37° C. for 40 minutes, plates were washed 4 times using wash buffer. Then the plates were added and incubated with 100 μl Peroxidase Streptavidin (1:5000 dilution in PBST buffer, Jackson Immunoresearch, Cat #016-030-084) for 40 minutes at 37° C. Plates were washed again using wash buffer. Finally, TMB was added and the reaction was stopped using 1M H₂SO₄. The absorbance of each well was read on a microplate reader using dual wavelengths mode with 450 nm for TMB and 630 nm as the reference wavelength, and the OD (450-630) values were plotted against antibody concentration. Data were analyzed using Graphpad Prism software and IC₅₀ values were reported.

[11] = biological target: T3, biotin-labeled human RANKL-Fc protein …; assay: as above; remark: listed apart in the source
[12] = biological target: T1, Recombinant human RANKL-his protein …; assay: cell-based or functional assay; remark: listed apart in the source
[13] = biological target: T2, human RANKL-his protein (prepared …); assay: Octet BLI, antibody captured, human RANKL-his in solution
Experimental: as §1, §3

[14] = biological target: T2, human RANKL-his protein (prepared …); assay: Octet BLI, chimeric antibody at 5 ug/ml captured, human RANKL-his in solution
Experimental: as §1
The chimeric antibody when tested was in HBS-EP⁺ at 5 μg/ml concentration.

[15] = biological target: T2, human RANKL-his protein (prepared …); assay: Biacore T200 SPR, antibody captured by anti-human IgG, human RANKL-his in flow, 1:1 fit
Experimental: (§6) Briefly, goat anti-human IgG (GE healthcare, Cat #BR100839, Human Antibody Capture Kit) was covalently linked to a CM5 chip (carboxy methyl dextran coated chip from GE healthcare #BR10030) via primary amines, using a standard amine coupling kit provided by Biacore. Un-reacted moieties on the biosensor surface were blocked with ethanolamine. […] The antigen-antibody association kinetics was followed for 2 minutes and the dissociation kinetics was followed for 10 minutes. The association and dissociation curves were fit to a 1:1 Langmuir binding model using BIAcore evaluation software.

[16] = biological target: T4, cynomolgus monkey RANKL-his protein (prepared in-house with SEQ ID NO.:42) (cynomolgus monkey, UniProt O14788 136-317 (human entry), limits assumed); assay: Biacore T200 SPR, antibody captured by anti-human IgG, cynomolgus RANKL-his in flow, 1:1 fit
T4 construct: also called Cynomolgus RANKL
T4 chain: T2 chain with S53T, G70A, I167V
Experimental: as §6

[17] = biological target: T3, biotin-labeled human RANKL-Fc protein …; assay: competitive ELISA: antibody blocks biotin-labeled human RANKL-Fc binding to coated human RANK-Fc; remark: listed apart in the source
[18] = biological target: T3, biotin-labeled human RANKL-Fc protein …; assay: competitive ELISA: antibody blocks biotin-labeled human RANKL-Fc binding to coated benchmark denosumab; remark: listed apart in the source
[19] = biological target: T1, Recombinant human RANKL-his protein …; assay: cell-based or functional assay; remark: listed apart in the source

B3: mouse anti-RANKL monoclonal antibody B3D8 (antibody, V domains shown)
VH: EVQLVESGGDLVKSGGSLKLSCAASGFTFSRYGMSWVRQTPDKRLEWVASISSGGTYTSYPDSVKGRFTITRDSAKNTLYLQMSSLKSEDTAMYYCARRNFITSATDCYFDVWGAGTTVTVSS
VL: DTVLTQSPATLSVTPGASVSLSCRASQSISNNLHWYQQKSHESPRLLIIYASQSISGIPSRFSGSGSGTDFTLSINSVETEDFGVYFCQQSNSWPFTFGGGTKLEIK
notes: Hybridoma-derived mouse IgG; also called Mouse B3D8
IC50, RANKL-induced osteoclast differentiation of RAW264.7 cells (pNPP, OD405) [1]: 0.625 nM
Kd [3]: 452 pM
EC50 [5]: 162 pM
EC50 [6]: 489 pM
Kd [7]: 452 pM
koff [7]: 0.000277 s⁻¹
kon [7]: 613000 M⁻¹ s⁻¹
IC50 [9]: 233 pM
IC50 [10]: 548 pM

B4: mouse anti-RANKL monoclonal antibody B1A8 (antibody, V domains shown)
VH: B3 VH with S14P, K65Q
VL: B3 VL
notes: Hybridoma-derived mouse IgG; also called Mouse B1A8
IC50, RANKL-induced osteoclast differentiation of RAW264.7 cells (pNPP, OD405) [19]: 0.967 nM
Kd [3]: 386 pM
EC50 [5]: 396 pM
EC50 [6]: 493 pM
Kd [7]: 386 pM
koff [7]: 0.000236 s⁻¹
kon [7]: 611000 M⁻¹ s⁻¹
IC50 [9]: 260 pM
IC50 [10]: 498 pM

Further binders by falling EC50 [6], results first:

IC50, RANKL-induced osteoclast differentiation of RAW264.7 cells (pNPP, OD405) [1]: 0.839 nM
IC50, RANKL-induced osteoclast differentiation of RAW264.7 cells (pNPP, OD405) [2]: 3.41 nM
Kd [3]: 71.8 pM
EC50 [4]: 632 pM
EC50 [5]: 82.6 pM
EC50 [6]: 1110 pM
Kd [7]: 71.8 pM
koff [7]: 7.9e-05 s⁻¹
kon [7]: 1.1e+06 M⁻¹ s⁻¹
IC50 [8]: 414 pM
IC50 [9]: 80.2 pM
IC50 [10]: 391 pM
IC50 [11]: 1280 pM
B1: mouse anti-RANKL monoclonal antibody D1A1 (antibody, V domains shown)
VH: EVQLVESGGGLVKSGGSLKLSCAASGFTFRNYAMSWVRQTPEKRLEWVAGISSGGTYTYYPDTVKGRFTISRDNARNTLFLQMSSLRSEDTAMYYCARRDYGDVYEWYFDVWGTGTTVTVSS
VL: DIVMTQSHKFMSTSVGDRVSITCKASQDVRTSIAWYQQKPGQSPNLLIYSASYRYTGVPDRFTGSGSGTDFTFTISSVQAEDLAVYYCQQHYSSPWTFGGGTKLEIK
notes: Hybridoma-derived mouse IgG purified on Protein A; also called Mouse D1A1

IC50, RANKL-induced osteoclast differentiation of RAW264.7 cells (pNPP, OD405) [2]: 1.39 nM
IC50, RANKL-induced osteoclast differentiation of RAW264.7 cells (pNPP, OD405) [12]: ~1.42 nM
Kd [13]: 197 pM
Kd [14]: < 1 pM
koff [14]: < 1e-07 s⁻¹
kon [14]: 128000 M⁻¹ s⁻¹
EC50 [4]: 257 pM
EC50 [6]: 624 pM
Kd [15]: 149 pM
Kd [16]: 420 pM
IC50 [17]: 112 pM
IC50 [8]: 155 pM
IC50 [18]: 473 pM
IC50 [11]: 441 pM
B2: Chimeric D1A1 (antibody, human IgG2, kappa, V domains shown)
VH: B1 VH
VL: DIVMTQSHKFMSTSVGDRVSITCKASQDVRTSIAWYQQKPGQSPNLLIYSASYRYTGVPDRFTGSGSGTDFTFTISSVQAEDLAVYYCQQHYSSPWTFGGGTKLEIKR
notes: Mouse variable regions on human IgG2 / kappa; also called chimeric antibody D1A1; chimeric D1A1 antibody
